Experimental data as given in doi:10.1101/2025.07.04.663185 (bioRxiv, 2025).

B1: Cdc25 (enzyme)
chain: MDSPLSSLSFTNTLSGKRNVLRPAARELKLMSDRNANQELDFFFPKSKHIASTLVDPFGKTCSTASPASSLAADMSMNMHIDESPALPTPRRTLFRSLSCTVETPLANKTIVSPLPESPSNDALTESYFFRQPASKYSITQDSPRVSSTIAYSFKPKASIALNTTKSEATRSSLSSSSFDSYLRPNVSRSRSSGNAPPFLRSRSSSSYSINKKKGTSGGQATRHLTYALSRTCSQSSNTTSLLESCLTDDTDDFELMSDHEDTFTMGKVADLPESSVELVEDAASIQRPNSDFGACNDNSLDDLFQASPIKPIDMLPKINKDIAFPSLKVRSPSPMAFAMQEDAEYDEQDTPVLRRTQSMFLNSTRLGLFKSQDLVCVTPKQSTKESERFISSHVEDLSLPCFAVKEDSLKRITQETLLGLLDGKFKDIFDKCIIIDCRFEYEYLGGHISTAVNLNTKQAIVDAFLSKPLTHRVALVFHCEHSAHRAPHLALHFRNTDRRMNSHRYPFLYYPEVYILHGGYKSFYENHKNRCDPINYVPMNDASHVMTCTKAMNNFKRNATFMRTKSYTFGQSVLASPDVNDSPTAMHSLSTLRRF
B2: Wee1 (enzyme)
chain: MSSSSNTSSHRSYGLRRSQRSMNLNRATLLAPPTPSSLYDANNSTSSTSSQKPNTSFTSLFGPRKQTTSSPSFSHAAPLHPLSPPSFTHSQPQIQAQPVPRRPSLFDRPNLVSRSSSRLGDSPSLSPVAQVANPIHHTAPSPSDVRAFPIHKNASTGVKRSFFSSSMSNGAMSPPSHSPSPFLQSSQHIPPSTPAQKLRKKNNFDSFRISNSHISPFASGSFSPFATSSPNFLSTSTPAPPNSNNANPSTLFSSIPSSRHTTSNHFPSNSAQSSLFSPTARPLTARKLGFASSQTKSAVSNNHSRNSSKDASFMMKSFIPSNRSHPQTQQNESSLFSDNSMVNSSSNSFSLFPNATLPNPPSSELLTTPFQQIKPPSQVFMSTGLLSKQHRPRKNINFTPLPPSTPSKPSTFVRPHSSSTDSPPSPSTPSNTQTDSYFIQRENTPTNHNSIPTIQLEKSSMDFLRFDPPPSAVKTSHNYGLPFLSNQRCPATPTRNPFAFENTVSIHMDGRQPSPIKSRNNNQMSFAMEEEADVSQPSSSSFTLSFPSALTSSKVSSSTSHLLTRFRNVTLLGSGEFSEVFQVEDPVEKTLKYAVKKLKVKFSGPKERNRLLQEVSIQRALKGHDHIVELMDSWEHGGFLYMQVELCENGSLDRFLEEQGQLSRLDEFRVWKILVEVALGLQFIHHKNYVHLDLKPANVMITFEGTLKIGDFGMASVWPVPRGMEREGDCEYIAPEVLANHLYDKPADIFSLGITVFEAAANIVLPDNGQSWQKLRSGDLSDAPRLSSTDNGSSLTSSSRETPANSIIGQGGLDRVVEWMLSPEPRNRPTIDQILATDEVCWVEMRRKAGAIIYEGIHGSSSNPQGDQMMEDWQVNV

Biological target: Cdc2-GFP (S. pombe, UniProt P04551 1-297)
Assay: affinity purification with mass spectrometry

Chain of Cdc2-GFP (P04551 whole entry): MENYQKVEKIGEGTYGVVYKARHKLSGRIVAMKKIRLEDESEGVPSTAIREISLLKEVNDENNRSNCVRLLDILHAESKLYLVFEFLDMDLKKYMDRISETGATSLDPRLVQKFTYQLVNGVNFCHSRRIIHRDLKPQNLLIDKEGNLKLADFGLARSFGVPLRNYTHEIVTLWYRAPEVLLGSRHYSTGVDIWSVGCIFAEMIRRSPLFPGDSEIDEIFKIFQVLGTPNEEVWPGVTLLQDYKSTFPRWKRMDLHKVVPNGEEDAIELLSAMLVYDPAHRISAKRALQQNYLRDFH

Row | Binder | fold increase in association with Cdc2, suc1^ts versus suc1+ cells
1 | B1 | 3 fold
2 | B2 | 2.5 fold
